According to paper PMC2708863 (The Journal of Biological Chemistry, 2009):
Read-outs that look alike come from different tables or passages of the source.

B1: ^3FnIII, third type III domain of human fibronectin (residues 810–900) (domain or fragment)
chain: not shown

Legend:
Assay in all cases: NMR titration
[1] = target: T1, ^4–5FnI, human fibronectin residues 183–275 (human, UniProt P02751 183-275)
^4–5FnI (R222A) = ^4–5FnI (R222A) (human, UniProt P02751 183-275, R222A)
[2] = target: T1, ^4–5FnI, human fibronectin residues …; remark: listed apart in the source
[3] = target: B1

T1 sequence (P02751 183-275): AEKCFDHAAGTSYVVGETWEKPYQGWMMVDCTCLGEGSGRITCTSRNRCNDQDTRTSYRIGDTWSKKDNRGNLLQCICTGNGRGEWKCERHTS
^4–5FnI (R222A), sequence (P02751 183-275 R222A): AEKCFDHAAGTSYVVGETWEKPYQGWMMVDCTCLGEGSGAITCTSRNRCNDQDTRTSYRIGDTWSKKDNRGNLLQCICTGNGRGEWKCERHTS

Binder | Kd [1] [µM] | fold reduction of affinity against the wild-type interaction (^4–5FnI (R222A)) [fold] | Kd [2] [µM] | Kd [3] [µM]
B1 | 800 ± 46 | > 20 | 146 ± 9 | 
^2–3FnI, human fibronectin residues 93–182 (domain or fragment, UniProt P02751 93-182, looked up) AEETCFDKYTGNTYRVGDTYERPKDSMIWDCTCIGAGRGRISCTIANRCHEGGQSYKIGDTWRRPHETGGYMLECVCLGNGKGEWTCKPI |  |  |  | 820 ± 70
